According to IntAct's records for PubMed 9520446:

B1: Mitogen-activated protein kinase kinase kinase 14 (Homo sapiens), Q99558 (parent)
chain: MAVMEMACPGAPGSAVGQQKELPKAKEKTPPLGKKQSSVYKLEAVEKSPVFCGKWEILNDVITKGTAKEGSEAGPAAISIIAQAECENSQEFSPTFSERIFIAGSKQYSQSESLDQIPNNVAHATEGKMARVCWKGKRRSKARKKRKKKSSKSLAHAGVALAKPLPRTPEQESCTIPVQEDESPLGAPYVRNTPQFTKPLKEPGLGQLCFKQLGEGLRPALPRSELHKLISPLQCLNHVWKLHHPQDGGPLPLPTHPFPYSRLPHPFPFHPLQPWKPHPLESFLGKLACVDSQKPLPDPHLSKLACVDSPKPLPGPHLEPSCLSRGAHEKFSVEEYLVHALQGSVSSGQAHSLTSLAKTWAARGSRSREPSPKTEDNEGVLLTEKLKPVDYEYREEVHWATHQLRLGRGSFGEVHRMEDKQTGFQCAVKKVRLEVFRAEELMACAGLTSPRIVPLYGAVREGPWVNIFMELLEGGSLGQLVKEQGCLPEDRALYYLGQALEGLEYLHSRRILHGDVKADNVLLSSDGSHAALCDFGHAVCLQPDGLGKSLLTGDYIPGTETHMAPEVVLGRSCDAKVDVWSSCCMMLHMLNGCHPWTQFFRGPLCLKIASEPPPVREIPPSCAPLTAQAIQEGLRKEPIHRVSAAELGGKVNRALQQVGGLKSPWRGEYKEPRHPPPNQANYHQTLHAQPRELSPRAPGPRPAEETTGRAPKLQPPLPPEPPEPNKSPPLTLSKEESGMWEPLPLSSLEPAPARNPSSPERKATVPEQELQQLEIELFLNSLSQPFSLEEQEQILSCLSIDSLSLSDDSEKNPSKASQSSRDTLSSGVHSWSSQAEARSSSWNMVLARGRPTDTPSYFNGVKVQIQSLNGEHLHIREFHRVKVGDIATGISSQIPAAAFSLVTKDGQPVRYDMEVPDSGIDLQCTLAPDGSFAWSWRVKHGQLENRP
partner: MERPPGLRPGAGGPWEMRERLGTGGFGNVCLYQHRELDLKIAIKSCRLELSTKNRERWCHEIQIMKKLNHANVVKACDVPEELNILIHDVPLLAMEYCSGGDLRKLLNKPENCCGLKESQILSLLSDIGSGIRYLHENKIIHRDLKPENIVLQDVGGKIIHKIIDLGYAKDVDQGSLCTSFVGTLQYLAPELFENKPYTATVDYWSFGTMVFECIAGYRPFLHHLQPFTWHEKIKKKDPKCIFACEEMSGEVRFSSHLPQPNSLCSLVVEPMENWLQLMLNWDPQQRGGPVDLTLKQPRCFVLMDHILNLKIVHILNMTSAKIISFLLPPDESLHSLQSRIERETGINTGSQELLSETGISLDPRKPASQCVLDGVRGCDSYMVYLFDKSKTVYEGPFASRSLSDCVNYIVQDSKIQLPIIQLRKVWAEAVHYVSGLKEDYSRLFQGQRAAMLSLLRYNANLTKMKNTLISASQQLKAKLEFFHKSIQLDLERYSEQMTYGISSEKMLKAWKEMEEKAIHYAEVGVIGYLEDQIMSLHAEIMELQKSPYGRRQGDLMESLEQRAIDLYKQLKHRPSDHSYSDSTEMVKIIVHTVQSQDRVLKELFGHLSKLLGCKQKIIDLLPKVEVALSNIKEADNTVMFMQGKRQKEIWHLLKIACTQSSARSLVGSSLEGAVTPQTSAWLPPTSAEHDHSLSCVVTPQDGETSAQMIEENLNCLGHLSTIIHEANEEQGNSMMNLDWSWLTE
B2: Inhibitor of nuclear factor kappa-B kinase subunit beta (Homo sapiens), O14920 (parent)
chain: MSWSPSLTTQTCGAWEMKERLGTGGFGNVIRWHNQETGEQIAIKQCRQELSPRNRERWCLEIQIMRRLTHPNVVAARDVPEGMQNLAPNDLPLLAMEYCQGGDLRKYLNQFENCCGLREGAILTLLSDIASALRYLHENRIIHRDLKPENIVLQQGEQRLIHKIIDLGYAKELDQGSLCTSFVGTLQYLAPELLEQQKYTVTVDYWSFGTLAFECITGFRPFLPNWQPVQWHSKVRQKSEVDIVVSEDLNGTVKFSSSLPYPNNLNSVLAERLEKWLQLMLMWHPRQRGTDPTYGPNGCFKALDDILNLKLVHILNMVTGTIHTYPVTEDESLQSLKARIQQDTGIPEEDQELLQEAGLALIPDKPATQCISDGKLNEGHTLDMDLVFLFDNSKITYETQISPRPQPESVSCILQEPKRNLAFFQLRKVWGQVWHSIQTLKEDCNRLQQGQRAAMMNLLRNNSCLSKMKNSMASMSQQLKAKLDFFKTSIQIDLEKYSEQTEFGITSDKLLLAWREMEQAVELCGRENEVKLLVERMMALQTDIVDLQRSPMGRKQGGTLDDLEEQARELYRRLREKPRDQRTEGDSQEMVRLLLQAIQSFEKKVRVIYTQLSKTVVCKQKALELLPKVEEVVSLMNEDEKTVVRLQEKRQKELWNLLKIACSKVRGPVSGSPDSMNASRLSQPGQLMSQPSTASNSLPEPAKKSEELVAEAHNLCTLLENAIQDTVREQDQSFTALDWSWLQTEEEEHSCLEQAS
B3: Mitogen-activated protein kinase kinase kinase 14 (Homo sapiens), Q99558 (parent)
chain: B1 chain
partner: B2 chain
B4: Inhibitor of nuclear factor kappa-B kinase subunit alpha (Homo sapiens), O15111 (parent)
chain: B1 partner

Variants of: B1
Conditions: with ikka_human CHUK, O15111

Row | Variant | effect of a mutation on the interaction
1 | K429A;K430A | disrupting interaction

Variants of: B2
Conditions: with ikba_human NFKBIA

Row | Variant | effect of a mutation on the interaction
2 | K44A | decreasing interaction

Variants of: B3
Conditions: with ikkb_human IKBKB

Row | Variant | effect of a mutation on the interaction
3 | K429A;K430A | disrupting interaction

Variants of: B4
Conditions: with ikba_human NFKBIA

Row | Variant | effect of a mutation on the interaction
4 | K44A | disrupting interaction
5 | S176A | decreasing interaction

Variants of: B4
Conditions: with ikba_human NFKBIA
Remark: another data set of the same source

Row | Variant | effect of a mutation on the interaction
6 | S176E | increasing interaction

Variants of: B4
Conditions: with MAP3K14, Q99558

Row | Variant | effect of a mutation on the interaction
7 | S176A | decreasing interaction
